What is called Kd is the equilibrium constant for the complex coming apart. High values mean weaker binding, low ones tighter binding.

These results are taken from patent US20120269814A1 (Amgen, published 2012).

For experiment [1], the target named is T1, human c-Mpl (full length, on cells) (human, UniProt P40238 26-635).
T1 sequence: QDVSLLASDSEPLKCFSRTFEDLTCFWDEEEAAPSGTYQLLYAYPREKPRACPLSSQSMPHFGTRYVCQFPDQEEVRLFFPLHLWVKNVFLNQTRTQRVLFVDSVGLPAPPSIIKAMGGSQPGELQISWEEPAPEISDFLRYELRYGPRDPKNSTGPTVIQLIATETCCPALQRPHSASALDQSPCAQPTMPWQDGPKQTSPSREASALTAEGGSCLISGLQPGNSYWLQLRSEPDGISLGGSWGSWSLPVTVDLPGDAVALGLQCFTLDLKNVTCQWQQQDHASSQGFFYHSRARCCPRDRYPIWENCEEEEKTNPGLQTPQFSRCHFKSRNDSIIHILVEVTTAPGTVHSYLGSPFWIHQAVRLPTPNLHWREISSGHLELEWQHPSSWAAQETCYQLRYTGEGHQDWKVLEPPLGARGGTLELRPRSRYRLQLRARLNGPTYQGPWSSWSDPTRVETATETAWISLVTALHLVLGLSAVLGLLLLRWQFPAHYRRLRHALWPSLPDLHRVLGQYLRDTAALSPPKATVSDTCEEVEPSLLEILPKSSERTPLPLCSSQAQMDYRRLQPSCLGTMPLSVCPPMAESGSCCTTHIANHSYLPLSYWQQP
The experiment can be described thus: cell-based or functional assay.

The next experiment concerns the target T2, rhu-c-Mpl (AA1-490-6H) (human, UniProt P40238 26-490).
T2 construct: Entire 490 amino acid extracellular domain with six C-terminal histidines, expressed in CHO cells; also called recombinant human c-Mpl protein; soluble c-Mpl
T2 sequence: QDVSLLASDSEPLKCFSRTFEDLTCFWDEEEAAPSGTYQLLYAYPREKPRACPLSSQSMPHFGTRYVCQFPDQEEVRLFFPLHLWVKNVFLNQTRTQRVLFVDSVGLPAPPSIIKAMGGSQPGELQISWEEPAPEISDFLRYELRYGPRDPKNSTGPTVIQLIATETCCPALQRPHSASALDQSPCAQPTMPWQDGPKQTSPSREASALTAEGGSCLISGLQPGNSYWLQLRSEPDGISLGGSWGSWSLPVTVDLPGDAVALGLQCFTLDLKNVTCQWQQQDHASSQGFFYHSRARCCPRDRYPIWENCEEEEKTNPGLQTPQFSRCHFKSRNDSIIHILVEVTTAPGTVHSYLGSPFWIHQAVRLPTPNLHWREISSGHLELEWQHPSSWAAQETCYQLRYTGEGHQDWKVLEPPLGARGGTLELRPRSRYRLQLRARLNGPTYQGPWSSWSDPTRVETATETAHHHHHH
The experiment can be described thus: solution-equilibrium Biacore with soluble rhu-c-Mpl, KinExA Pro fit. Here is the method: The affinities of these anti-c-Mpl mAbs to the soluble c-Mpl protein were determined in a solution-based Biacore analysis. Briefly, a fixed amount of rhu-c-Mpl was incubated with various concentrations of anti-c-Mpl mAbs at room temperature for ˜4 hours before being run over the same anti-c-Mpl mAbs immobilized at high density on a CM5 surface. In this assay the binding signal is proportional to the concentration of free rhu-c-Mpl at equilibrium with a given antibody concentration. The dissociation equilibrium constant (KD) was obtained from nonlinear regression of the competition curves using an n-curve one-site homogeneous binding model (KinExATM Pro software).
(In SPR one partner is held on a chip, and binding of the other changes the refractive index at the surface.)

Experiment [2] deals with T1, human c-Mpl (full length, on cells). As to the kind of experiment: cell-based or functional assay. This is another data set of the same source.

Where two headings read alike, the source gives them in different places.

B1: mAb 1.111 (antibody, IgG1, V domains shown)
VH: DVQLQESGPGLVKPSQSLSLTCTVTGYSITIDYTWNWIRQFPGNKLEWMGYITYSGSTDYNPSLKSRSSITRDTSMNQFFLQLNSVTTEDTATYYCARLGRRYALDYWGQGTSVTVSS
VL: DIQMTQSSSSFSVSLGDRVTITCKASEDIYIRLAWYQQKPGNAPRLLISAATSLETGIPSRFSGSGSGEDYTLTITSLQTEDVATYYCQQYWTTPWTFGGGTKLEIKR
notes: also called A4
Consider B1, for which the “IC50 (nM), inhibition of rhuTPO (26 pM)-driven proliferation of 32D-hu-c-Mpl cells (CellTiter-Glo)” value (shortened to “IC50 (nM), inhibition of rhuTPO”) in experiment [1] stood at 0.12 nM. Further, the Kd with rhu-c-Mpl (AA1-490-6H) stood at 0.036 nM.

B2: mAb 1.6 (antibody, IgG2b, V domains shown)
VH: DVQLQESGPGLVKPSQSLSLTCTVTGYSITSDYTWNWIRQFPGNKLEWMGYITYSGSTSYNPSLKSRNSITRDTSKNQFFLQLNSVTTEDTATYYCARLGRRYTMDYWGQGTSVTVSS
VL: DIQMTQSSSSFSVSLGDRVTITCMASEDIYIRLAWYQQKPGNAPRLLISAATSLETGVPSRFSGSGSGKDYTLSITSLQTEDVGTYYCQQYWSSPWTFGGGTKLEIN
notes: An Alexa Fluor 647 conjugate was used for CD34+ cell staining; also called Ab 1.6.1; A1
For the molecule B2, the “IC50 (nM), inhibition of rhuTPO” value in experiment [1] came out at 0.03 nM. The molecule further yielded a Kd in the experiment with rhu-c-Mpl (AA1-490-6H) of 0.036 nM.

B3: mAb 1.75 (antibody, IgG2b, V domains shown)
VH: EVQLVESGGGLVQPKGSLKLSCAASGFSFNTYAMNWVRQAPGKGLEWIAHIRSKSNNFATYYADSVKDRFSISRDASENILFLQMNNLKTEDTAMYYCVRQGGDFPMDYWGQGTSVTVSS
VL: QIVLTQSPAIMSASPGEKVTISCSASSSVSYMYWYQQKPGSSPKPWIYRTSNLASGVPARFSGSGSGTSYSLTISNMEAEDAAAYYCQQYHSYPTTFGGGTKLEVK
notes: also called A2
Consider B3, for which the “IC50 (nM), inhibition of rhuTPO” value in experiment [1] was found to be 0.05 nM. Moreover, the affinity with rhu-c-Mpl (AA1-490-6H), expressed as Kd, was 0.01 nM.

B4: mAb 1.169 (antibody, IgG1, V domains shown)
VH: QVQLQQSGPELVKPGASVKISCKASGYGFSSSWMNWVKQRPGKGLEWIGRIYPGDGETSYNGEFKGKATLTADKSSSTAYMQLSSLTSEDSAVYFCASYYEGGYWGQGTLVTVSA
VL: DIVMTQAAPSLPVTPGESVSISCRSSKSLLHSNGNTYLFWFLQRPGQSPHLLIYRMSNLASGVPDRFSGSGSGTAFTLRISRVEAEDVGVYYCMQHLEYPYTFGGGTKLEIKR
notes: also called A6
B4: the “IC50 (nM), inhibition of rhuTPO” value in experiment [2] worked out at 5.32 nM. This molecule also returned a Kd with rhu-c-Mpl (AA1-490-6H) of 0.48 nM.

B5: mAb 1.36 (antibody, IgG1, V domains shown)
VH: QVQLQQSGPELVKPGASVKISCKASGYGFSNSWMNWVRQRPGKGLEWIGRIYPGDGETSYNGEFVGKATLTADKSSSTAYMHLSSLTSEDSAVYFCASYYEGGYWGQGTLVTVS
VL: DIVMTQAAPSVPVTPGESVSISCRSSKSLLHSNGNTYLYWFLQRPGQSPQLLIYRMSNLASGVPDRFSGSGSGTAFTLRISRVEAEDVGVYYCMQHLEYPYTFGGGTKLEIKR
notes: also called A5
Take B5: the “IC50 (nM), inhibition of rhuTPO” value in experiment [2] was determined as 1.25 nM. The molecule further showed a Kd with rhu-c-Mpl (AA1-490-6H) of 0.45 nM.

B6: mAb 1.78 (antibody, IgG1, V domains shown)
VH: QVQLQQSGPELVKPGASVKMSCKASGYAFSSSWLNWVRQRPGKGLEWIGRIYPGDGENHYNGKFKGKATLTADKSSSTGYMQLSSLTSEDSAVYFCASYYEGGYWGQGTLITVSA
VL: DIVMTQAAPSIPVTPGESVSISCRSDKSLLHSNGNTYLFWFLQRPGQSPQLLIYRMSNLASGVPDRFSGSGSGTAFTLRISGVEAEDVGVYYCMQHLEYPYTFGGGTKLEIK
notes: also called A3
For B6, the “IC50 (nM), inhibition of rhuTPO” value in experiment [2] came out at 0.23 nM. In the experiment with rhu-c-Mpl (AA1-490-6H), this molecule gave a Kd of 0.072 nM.
